These results are taken from patent US10766960 (dated 2020).

In experiment [1] the target is T1, FcgRIIb (human, UniProt P31994).
T1 chain: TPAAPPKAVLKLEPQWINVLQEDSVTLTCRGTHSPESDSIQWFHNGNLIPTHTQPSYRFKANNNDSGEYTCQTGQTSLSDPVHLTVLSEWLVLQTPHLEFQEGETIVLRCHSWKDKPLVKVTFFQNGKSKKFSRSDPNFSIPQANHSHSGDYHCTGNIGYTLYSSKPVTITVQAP
In words: SPR.

Experiment [2] concerns the target FcgRIIIa F (human, UniProt P08637). Put plainly: SPR.

Sequence of FcgRIIIa F (P08637 17-208): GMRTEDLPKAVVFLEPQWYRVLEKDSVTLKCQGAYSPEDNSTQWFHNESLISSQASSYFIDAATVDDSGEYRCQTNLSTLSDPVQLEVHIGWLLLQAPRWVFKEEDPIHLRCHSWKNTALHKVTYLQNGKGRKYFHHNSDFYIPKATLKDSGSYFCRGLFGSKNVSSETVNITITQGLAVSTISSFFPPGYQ

B1: GpH7-A57/GpH7-B78/GpL16-k0 (antibody)
chain 1: QVQLVQSGAEVKKPGASVTVSCKASGYTFTDYEMHWIRQPPGEGLEWIGAIDPKTGDTAYSESFQDRVTLTADKSTSTAYMELSSLTSEDTAVYYCTRFYSYTYWGQGTLVTVSSASTKGPSVFPLAPSSKSTSGGTAALGCLVKDYFPEPVTVSWNSGALTSGVHTFPAVLQSSGLYSLSSVVTVPSSSLGTQTYICNVNHKPSNTKVDKKVEPKSCDKTHTCPPCPAPELLGGPDVFLFPPKPKDTLMISRTPEVTCVVVDVSHEDPEVKFNWYVDGVEVHNAKTKPREEQYNSTYRVVSVLTVLHQDWLNGKEYKCKVSNKALPLPEEKTISKAKGQPREPQVYTLPPSRKELTKNQVSLTCLVKGFYPSDIAVEWESNGQPENNYKTTPPVLDSDGSFFLYSKLTVDKSRWQQGNVFSCSVMHEALHNRYTQKSLSLSP
chain 2: QVQLVQSGAEVKKPGASVTVSCKASGYTFTDYEMHWIRQPPGEGLEWIGAIDPKTGDTAYSESFQDRVTLTADKSTSTAYMELSSLTSEDTAVYYCTRFYSYTYWGQGTLVTVSSASTKGPSVFPLAPSSKSTSGGTAALGCLVKDYFPEPVTVSWNSGALTSGVHTFPAVLQSSGLYSLSSVVTVPSSSLGTQTYICNVNHKPSNTKVDKKVEPKSCDKTHTCPPCPAPELLGGPDVFLFPPKPKDTLMISRTPEVTCVVVDVSHEDPEVKFNWYVDGVEVHNAKTKPREEQYNSTYRVVSVLTVLHQDWLNGKEYKCKVSNKALPLPEEKTISKAKGQPREPQVYTLPPSRDELTKNQVSLTCLVKGFYPSDIAVEWESNGQPENNYKTTPPVLDSDGSFFLYSKLTVDKSRWQQGNVFSCSVMHEALHNHYTQESLSLSP
chain 3: DIVMTQSPLSLPVTPGEPASISCQASESLVHSNRNTYLHWYLQKPGQSPQLLIYKVSNRFSGVPDRFSGSGSGTDFTLKISRVEAEDVGVYYCSQNTHVPPTFGQGTKVEIERTVAAPSVFIFPPSDEQLKSGTASVVCLLNNFYPREAKVQWKVDNALQSGNSQESVTEQDSKDSTYSLSSTLTLSKADYEKHKVYACEVTHQGLSSPVTKSFNRGEC
With B1, the dissociation constant Kd came to 610 nM in experiment [1] and 6.2 nM in experiment [2].

B2: GpH7-G1d/GpL16-k0 (antibody)
chain 1: not shown
chain 2: DIVMTQSPLSLPVTPGEPASISCQASESLVHSNRNTYLHWYLQKPGQSPQLLIYKVSNRFSGVPDRFSGSGSGTDFTLKISRVEAEDVGVYYCSQNTHVPPTFGQGTKVEIERTVAAPSVFIFPPSDEQLKSGTASVVCLLNNFYPREAKVQWKVDNALQSGNSQESVTEQDSKDSTYSLSSTLTLSKADYEKHKVYACEVTHQGLSSPVTKSFNRGEC
On to B2, for which the results for the Kd in experiment [1] and in experiment [2] were 3100 nM and 1200 nM, respectively.

B3: GpH7-TA7/GpH7-TA45/GpL16-k0 (antibody)
chain 1: QVQLVQSGAEVKKPGASVTVSCKASGYTFTDYEMHWIRQPPGEGLEWIGAIDPKTGDTAYSESFQDRVTLTADKSTSTAYMELSSLTSEDTAVYYCTRFYSYTYWGQGTLVTVSSASTKGPSVFPLAPSSKSTSGGTAALGCLVKDYFPEPVTVSWNSGALTSGVHTFPAVLQSSGLYSLSSVVTVPSSSLGTQTYICNVNHKPSNTKVDKKVEPKSCDKTHTCPPCPAPEYLWGPSVFLFPPKPKDTLMISRTPEVTCVVVDVSHEDPEVKFNWYVDGVEVHNAKTKPREEQYNATYRVVSVLTVLHQDWLNGKEYKCKVSNKALPAPIEKTISKAKGQPREPQVYTLPPSRKELTKNQVSLTCLVKGFYPSDIAVEWESNGQPENNYKTTPPVLDSDGSFFLYSKLTVDKSRWQQGNVFSCSVMHEALHNRYTQKSLSLSP
chain 2: QVQLVQSGAEVKKPGASVTVSCKASGYTFTDYEMHWIRQPPGEGLEWIGAIDPKTGDTAYSESFQDRVTLTADKSTSTAYMELSSLTSEDTAVYYCTRFYSYTYWGQGTLVTVSSASTKGPSVFPLAPSSKSTSGGTAALGCLVKDYFPEPVTVSWNSGALTSGVHTFPAVLQSSGLYSLSSVVTVPSSSLGTQTYICNVNHKPSNTKVDKKVEPKSCDKTHTCPPCPAPEYLWGPSVFLFPPKPKDTLMISRTPEVTCVVVDVSHEDPEVKFNWYVDGVEVHNAKTKPREEQYNATYRVVSVLTVLHQDWLNGKEYKCKVSNKALPAPIEKTISKAKGQPREPQVYTLPPSRDELTKNQVSLTCLVKGFYPSDIAVEWESNGQPENNYKTTPPVLDSDGSFFLYSKLTVDKSRWQQGNVFSCSVMHEALHNHYTQESLSLSP
chain 3: DIVMTQSPLSLPVTPGEPASISCQASESLVHSNRNTYLHWYLQKPGQSPQLLIYKVSNRFSGVPDRFSGSGSGTDFTLKISRVEAEDVGVYYCSQNTHVPPTFGQGTKVEIERTVAAPSVFIFPPSDEQLKSGTASVVCLLNNFYPREAKVQWKVDNALQSGNSQESVTEQDSKDSTYSLSSTLTLSKADYEKHKVYACEVTHQGLSSPVTKSFNRGEC
As for B3, the Kd in experiment [1] amounted to 18000 nM; in experiment [2] it was 3300 nM.

B4: GpH7-A5/GpH7-B3/GpL16-k0 (antibody)
chain 1: not shown
chain 2: not shown
chain 3: DIVMTQSPLSLPVTPGEPASISCQASESLVHSNRNTYLHWYLQKPGQSPQLLIYKVSNRFSGVPDRFSGSGSGTDFTLKISRVEAEDVGVYYCSQNTHVPPTFGQGTKVEIERTVAAPSVFIFPPSDEQLKSGTASVVCLLNNFYPREAKVQWKVDNALQSGNSQESVTEQDSKDSTYSLSSTLTLSKADYEKHKVYACEVTHQGLSSPVTKSFNRGEC
For B4, the Kd amounted to 3100 nM in experiment [1] and 1600 nM in experiment [2].

B5: GpH7-A5/GpH7-B78/GpL16-k0 (antibody)
chain 1: not shown
chain 2: QVQLVQSGAEVKKPGASVTVSCKASGYTFTDYEMHWIRQPPGEGLEWIGAIDPKTGDTAYSESFQDRVTLTADKSTSTAYMELSSLTSEDTAVYYCTRFYSYTYWGQGTLVTVSSASTKGPSVFPLAPSSKSTSGGTAALGCLVKDYFPEPVTVSWNSGALTSGVHTFPAVLQSSGLYSLSSVVTVPSSSLGTQTYICNVNHKPSNTKVDKKVEPKSCDKTHTCPPCPAPELLGGPDVFLFPPKPKDTLMISRTPEVTCVVVDVSHEDPEVKFNWYVDGVEVHNAKTKPREEQYNSTYRVVSVLTVLHQDWLNGKEYKCKVSNKALPLPEEKTISKAKGQPREPQVYTLPPSRDELTKNQVSLTCLVKGFYPSDIAVEWESNGQPENNYKTTPPVLDSDGSFFLYSKLTVDKSRWQQGNVFSCSVMHEALHNHYTQESLSLSP
chain 3: DIVMTQSPLSLPVTPGEPASISCQASESLVHSNRNTYLHWYLQKPGQSPQLLIYKVSNRFSGVPDRFSGSGSGTDFTLKISRVEAEDVGVYYCSQNTHVPPTFGQGTKVEIERTVAAPSVFIFPPSDEQLKSGTASVVCLLNNFYPREAKVQWKVDNALQSGNSQESVTEQDSKDSTYSLSSTLTLSKADYEKHKVYACEVTHQGLSSPVTKSFNRGEC
Regarding B5, the Kd is 430 nM in experiment [1] and 54 nM in experiment [2].
